Test results from IntAct's records for PubMed 16083881.

B1: Serine/threonine-protein phosphatase 5 (Mus musculus), Q60676 (parent)
chain: MAMAEGERTECAETPRDEPPADGTLKRAEELKTQANDYFKAKDYENAIKFYSQAIELNPGNAIYYGNRSLAYLRTECYGYALGDATRAIELDKKYIKGYYRRAASNMALGKFRAALRDYETVVKVKPNDKDAKMKYQECSKIVKQKAFERAIAGDEHRRSVVDSLDIESMTIEDEYSGPKLEDGKVTITFMKDLMQWYKDQKKLHRKCAYQILVQVKEVLCKLSTLVETTLKETEKITVCGDTHGQFYDLLNIFELNGLPSETNPYIFNGDFVDRGSFSVEVILTLFGFKLLYPDHFHLLRGNHETDNMNQIYGFEGEVKAKYTAQMYELFSEVFEWLPLAQCINGKVLIMHGGLFSEDGVTLDDIRKIERNRQPPDSGPMCDLLWSDPQPQNGRSVSKRGVSCQFGPDVTKAFLEENQLDYIIRSHEVKAEGYEVAHGGRCVTVFSAPNYCDQMGNKASYIHLQGSDLRPQFHQFTAVPHPNVKPMAYANTLLQLGMM
partner: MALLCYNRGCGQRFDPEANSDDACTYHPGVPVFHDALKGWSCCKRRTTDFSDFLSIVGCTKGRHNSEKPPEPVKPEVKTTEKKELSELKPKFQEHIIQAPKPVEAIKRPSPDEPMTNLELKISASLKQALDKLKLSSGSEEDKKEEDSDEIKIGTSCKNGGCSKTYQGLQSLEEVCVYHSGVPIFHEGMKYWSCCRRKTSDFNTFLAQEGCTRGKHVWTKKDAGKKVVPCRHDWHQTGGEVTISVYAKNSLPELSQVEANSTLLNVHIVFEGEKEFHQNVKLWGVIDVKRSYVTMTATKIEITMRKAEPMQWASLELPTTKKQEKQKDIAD

Variants of: B1
Conditions: with chrd1_mouse Chordc1, Q9D1P4

Q: How did the “effect of a mutation on the interaction” value turn out when MAMAEGERTECAETPRDEPPADGTLKRAEELKTQANDYFKAKDYENAIKFYSQAIELNPGNAIYYGNRSLAYLRTECYGYALGDATRAIELDKKYIKGYYARAASNMALGKFRAALRDYETVVKVKPNDKDAKMKYQECSKIVKQKAFERAIAGDEHRRSVVDSLDIESMTIEDEYSGPKLEDGKVTITFMKDLMQWYKDQKKLHRKCAYQILVQVKEVLCKLSTLVETTLKETEKITVCGDTHGQFYDLLNIFELNGLPSETNPYIFNGDFVDRGSFSVEVILTLFGFKLLYPDHFHLLRGNHETDNMNQIYGFEGEVKAKYTAQMYELFSEVFEWLPLAQCINGKVLIMHGGLFSEDGVTLDDIRKIERNRQPPDSGPMCDLLWSDPQPQNGRSVSKRGVSCQFGPDVTKAFLEENQLDYIIRSHEVKAEGYEVAHGGRCVTVFSAPNYCDQMGNKASYIHLQGSDLRPQFHQFTAVPHPNVKPMAYANTLLQLGMM [R101A] was run?
A: The value was “disrupting interaction”.

Variants of: B1
Conditions: with chrd1_mouse Chordc1, Q9D1P4
Remark: another data set of the same source

Q: MAMAEGERTECAETPRDEPPADGTLKRAEELATQANDYFKAKDYENAIKFYSQAIELNPGNAIYYGNRSLAYLRTECYGYALGDATRAIELDKKYIKGYYRRAASNMALGKFRAALRDYETVVKVKPNDKDAKMKYQECSKIVKQKAFERAIAGDEHRRSVVDSLDIESMTIEDEYSGPKLEDGKVTITFMKDLMQWYKDQKKLHRKCAYQILVQVKEVLCKLSTLVETTLKETEKITVCGDTHGQFYDLLNIFELNGLPSETNPYIFNGDFVDRGSFSVEVILTLFGFKLLYPDHFHLLRGNHETDNMNQIYGFEGEVKAKYTAQMYELFSEVFEWLPLAQCINGKVLIMHGGLFSEDGVTLDDIRKIERNRQPPDSGPMCDLLWSDPQPQNGRSVSKRGVSCQFGPDVTKAFLEENQLDYIIRSHEVKAEGYEVAHGGRCVTVFSAPNYCDQMGNKASYIHLQGSDLRPQFHQFTAVPHPNVKPMAYANTLLQLGMM [K32A] was tested. Which “effect of a mutation on the interaction” value did it give?
A: The value was “disrupting interaction”.
